Laboratory results from patent US9101618B2, “Method for treating and/or preventing neurodegenerative disease by adiponectin receptor agonist” (TOKYO METROPOLITAN INSTITUTE OF MEDICAL SCIENCE, priority 2011, dated 2015).

Assays:
Type in all cases: cell-based, rat
p38 MAPK = assay: Adiponectin addition (2): signal transduction, phospho-p38 MAPK western blotting; conditions: 1 μg/mL, 0, 10 and 30 min
Experimental: (§1) The B103 neuroblastoma cells (α (alpha)S) and the B103 neuroblastoma cells (vector) were inoculated on a 5 cm dish and cultured to a state of about 80-90% confluence. Later, the aforementioned cells were washed with PBS, and then cultured in a serum-free medium for four hours. After washing with PBS, the cells were then cultured in a test medium (adiponectin-added group) prepared by adding recombinant human adiponectin (1_μg/mL, trimer, PROSPEC) to a serum-free medium. As a control, there was used a control medium (adiponectin non-added group) prepared by adding thereto PBS instead of recombinant human adiponectin. A culture time was 0, 10 and 30 min when evaluating signal transduction, 0, 1 and 2 hour(s) when evaluating tau phosphorylation. The cells collected were lysed with a cell lysis solution (1% TritonX-100, 1% Nonidet P-40, 50 mM HEPES, 150 mM NaCl, 10% glycerol, 1.5 mM MgCl2, 1 mM EGTA, 100_mM sodium fluoride, a protease inhibitor (NACALAI TESQUE, INC.)). Supernatants were collected after performing centrifugation at 100,000×g for 30 min, and were used as surfactant soluble fractions when performing western blotting. Here, western blotting was performed in accordance with the procedures described in example 1. […]

GSK-3β (beta) [1] = assay: Addition of p38 MAPK inhibitor and AMPK inhibitor: phospho-GSK-3β western blotting; conditions: 1 μg/mL adiponectin 30 min, no inhibitor
Experimental: The aforementioned B103 neuroblastoma cells (α (alpha)S) were inoculated on the 6-well plate and cultured to a state of about 80-90% confluence. After washing with PBS, the aforementioned cells were further cultured for 10 min in an inhibition test medium prepared by adding either 5 μM p38 MAPK inhibitor (SB203580, Promega) or 5 μM AMPK inhibitor (Compound C, Calbiochem) to a serum-free medium. As a control, DMSO was added to a serum-free medium instead of the aforementioned inhibitors. Later, either recombinant human adiponectin (1 μg/mL, trimer, PROSPEC) or PBS was added so as to culture the cells for 30 min. The cells collected were then lysed with the aforementioned cell lysis solution. Supernatants were collected after performing centrifugation at 100,000×g for 30 min, and then subjected to western blotting. Here, western blotting was performed in accordance with the procedures described in example 1.
When performing western blotting to evaluate signal transduction pathways, the anti-phospho-GSK-3β (beta) (Ser9) antibody (D85E12, Cell Signaling Technology), the anti-GSK-3β (beta) antibody (BD Biosciences) and the anti-β (beta)-actin mouse monoclonal antibody (C-15, Sigma-Aldrich Japan Inc.) were used as primary antibodies after being appropriately diluted. Further, the HRP labeled anti-mouse IgG antibody (DAKO) was used as a secondary antibody after being appropriately diluted.

AMPK = assay: Adiponectin addition (2): signal transduction, phospho-AMPK western blotting; conditions: 1 μg/mL, 0, 10 and 30 min
Experimental: as §1

GSK-3β (beta) [2] = assay: Adiponectin addition (2): signal transduction, phospho-GSK-3β western blotting; conditions: 1 μg/mL, 0, 10 and 30 min
Experimental: as §1

[3] = test system: B103 neuroblastoma cells (α (alpha)S); assay: Adiponectin addition (1): α-synuclein aggregation (western blotting of fractions); conditions: 1 μg/mL, 24 hours, serum-free medium
Experimental: The B103 neuroblastoma cells (α (alpha)S) and the B103 neuroblastoma cells (vector) were prepared and cultured in accordance with the procedures described in example 3. The B103 neuroblastoma cells (α (alpha)S) and the B103 neuroblastoma cells (vector) were inoculated on the 6-well plate and cultured to a state of about 80-90% confluence. After washing with PBS, the aforementioned cells were further cultured for 24 hours in a test medium prepared by adding recombinant human adiponectin (1 μg/mL, trimer, PROSPEC) to a serum-free medium. As a control, there was used a control medium prepared by adding thereto PBS instead of recombinant human adiponectin. After culturing, there were prepared the TBS soluble fraction, the SDS soluble fraction and the formic acid soluble fraction in accordance with the procedures described in example 1. Further, western blotting was performed in accordance with the procedures described in example 1. In order to evaluate α (alpha)-synuclein aggregation, an anti-α (alpha)-synuclein mouse monoclonal antibody (syn-1, Nippon Becton Dickinson Company, Ltd) was used as a primary antibody when performing western blotting, the anti-α (alpha)-synuclein mouse monoclonal antibody being diluted appropriately before use. […]

B1: adiponectin: recombinant human adiponectin (trimer, PROSPEC) added to serum-free medium at 1 μg/mL (protein, UniProt Q15848 19-244, looked up)
Adiponectin: ETTTQGPGVLLPLPKGACTGWMAGIPGHPGHNGAPGRDGRDGTPGEKGEKGDPGLIGPKGDIGETGVPGAEGPRGFPGIQGRKGEPGEGAYVYRSAFSVGLETYVTIPNMPIRFTKIFYNQQNHYDGSTGKFHCNIPGLYYFAYHITVYMKDVKVSLFKKDKAMLFTYDQYQENNVDQASGSVLLHLEVGDQVWLQVYGEGERNGLYADNDNDSTFTGFLLYHDTN
- phosphorylation of p38 MAPK (p38 MAPK): promoted
- phosphorylated GSK-3β in surfactant soluble fraction (GSK-3β (beta) [1]): detected
- phosphorylation of AMPK (AMPK): promoted
- phosphorylation of GSK-3β (GSK-3β (beta) [2]): promoted
- α-synuclein in culture supernatant [3]: decreased
- α-synuclein in the formic acid soluble fraction [3]: decreased
